Numbered stars: 1 amine (or outer) side, 2 acyl side, 3 side chain; on linkers, the order of the positions; unused ones are H or OH. Bridge positions count the residues as written; N and C are the ends. Square brackets hold non-standard residues; d marks the D form. Side chains are listed from the residue outwards. Ends that are not written are not given here. Peptide text beside a SMILES is read from it. * marks the point of attachment. C20 diacid = O=C(O)CCCCCCCCCCCCCCCCCCC(=O)*; γGlu = O=C(O)[C@H](CCC(=O)[*:2])N[*:1]; Hyp = O=C(O)[C@@H]1C[C@@H](O)CN1; AEEA = NCCOCCOCC(=O)O
Experiments:
hAMY3 receptor = biological target: T1, hAMY3 receptor (Homo sapiens, UniProt O60896+P30988); assay: cAMP assay for in vitro receptor activation, hAMY3-R; format: cell-based; settings: cAMP assay, hAMY3 receptor; read-out: hAMY3R EC50
T1 sequence (P30988 25-474): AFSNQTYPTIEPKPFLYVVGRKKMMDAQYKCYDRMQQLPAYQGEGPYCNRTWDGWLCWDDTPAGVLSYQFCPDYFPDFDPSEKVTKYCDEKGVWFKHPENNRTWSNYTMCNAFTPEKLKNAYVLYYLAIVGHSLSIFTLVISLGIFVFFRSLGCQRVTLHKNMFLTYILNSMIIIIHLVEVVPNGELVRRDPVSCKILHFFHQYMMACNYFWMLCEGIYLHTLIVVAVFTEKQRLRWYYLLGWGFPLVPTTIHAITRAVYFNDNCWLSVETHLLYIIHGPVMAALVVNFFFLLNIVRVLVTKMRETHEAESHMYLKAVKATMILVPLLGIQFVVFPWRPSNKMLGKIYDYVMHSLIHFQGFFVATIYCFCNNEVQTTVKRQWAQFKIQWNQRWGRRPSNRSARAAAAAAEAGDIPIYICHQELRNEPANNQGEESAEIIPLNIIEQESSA
T1 sequence (O60896 24-148 partner): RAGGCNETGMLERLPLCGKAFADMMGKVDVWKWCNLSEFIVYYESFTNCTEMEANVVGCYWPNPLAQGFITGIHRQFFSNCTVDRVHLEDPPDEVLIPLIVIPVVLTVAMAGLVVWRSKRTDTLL
Method: General Protocols for cAMP Assays for Measuring In Vitro Receptor Activation
Cells stably overexpressing the hAMY3 receptor were obtained from Ogeda (now Astellas Pharma), sub-cloned and a monoclonal cell-line with an appropriate assay-window was expanded, aliquoted and frozen.
An aliquot was thawed and plated in DPBS with 0.05% casein and 0.5 mM IBMX as 2000 cells/well in a 384-well format. The cells were then immediately stimulated for 30 min at room temperature with graded doses of test compound using human amylin (Bachem, cat no. H-7905) as a positive control. cAMP accumulation was measured using a Cisbio assay for Gs coupled receptors (cat. no. 62AM4PEC), where the assay reagents were added as per the manufacturer's instructions and time-resolved fluorescence energy transfer recorded after one hour.

hAMY3R = biological target: T2, hAMY3R (human, UniProt P30988); assay: cell-based or functional assay
T2 sequence 1: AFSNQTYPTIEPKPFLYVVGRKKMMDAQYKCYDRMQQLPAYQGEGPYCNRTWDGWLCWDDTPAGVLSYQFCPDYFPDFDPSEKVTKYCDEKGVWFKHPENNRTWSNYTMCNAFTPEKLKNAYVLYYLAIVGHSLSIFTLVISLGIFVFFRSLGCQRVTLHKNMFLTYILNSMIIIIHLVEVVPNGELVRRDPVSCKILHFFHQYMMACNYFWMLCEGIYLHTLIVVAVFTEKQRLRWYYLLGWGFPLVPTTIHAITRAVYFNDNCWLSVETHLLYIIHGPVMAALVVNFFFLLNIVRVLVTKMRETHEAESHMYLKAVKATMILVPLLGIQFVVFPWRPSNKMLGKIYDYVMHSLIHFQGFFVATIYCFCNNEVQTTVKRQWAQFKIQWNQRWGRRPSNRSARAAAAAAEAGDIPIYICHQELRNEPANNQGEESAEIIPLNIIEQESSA
T2 sequence 2: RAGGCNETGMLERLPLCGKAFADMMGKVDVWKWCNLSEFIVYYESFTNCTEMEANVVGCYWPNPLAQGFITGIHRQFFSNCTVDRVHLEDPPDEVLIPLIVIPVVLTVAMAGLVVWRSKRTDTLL

hAM1R = hAM1R (human, UniProt Q16602); assay: cell-based or functional assay

Row | Molecule | EC50 (hAMY3 receptor) | hAMY3R EC50 (cAMP) (hAMY3R) | hAM1R EC50 (cAMP) (hAM1R)
1 | CC[C@H](C)[C@H](NC(=O)[C@H](CCCCN)NC(=O)[C@H](CO)NC(=O)[C@H](CCCNC(=N)N)NC(=O)[C@@H]1CCCN1C(=O)[C@H](C)NC(=O)[C@@H](NC(=O)[C@H](CC(N)=O)NC(=O)[C@H](CC(=O)O)NC(=O)[C@H](CCCCN)NC(=O)[C@H](CC(=O)O)NC(=O)[C@H](CCCCN)NC(=O)[C@H](CC(=O)O)NC(=O)[C@@H](NC(=O)[C@H](Cc1ccccc1)NC(=O)[C@H](CCC(N)=O)NC(=O)[C@H](Cc1ccc(O)cc1)NC(=O)[C@@H](NC(=O)[C@H](CCC(N)=O)NC(=O)[C@H](Cc1c[nH]cn1)NC(=O)[C@H](C)NC(=O)[C@H](CC(C)C)NC(=O)[C@H](CCCNC(=N)N)NC(=O)[C@H](CCC(N)=O)NC(=O)[C@@H](NC(=O)[C@@H](NC(=O)[C@@H]1CSSC[C@H](NC(=O)CN)C(=O)N[C@@H](CCCNC(=N)N)C(=O)N[C@@H]([C@@H](C)O)C(=O)NCC(=O)N[C@@H]([C@@H](C)O)C(=O)N1)[C@@H](C)O)C(C)C)[C@@H](C)CC)[C@@H](C)O)C(C)C)C(=O)NCC(=O)N1CCC[C@H]1C(=O)N[C@@H](CCC(N)=O)C(=O)NCC(=O)N1C[C@H](O)C[C@H]1C(N)=O [compound 179] (H-GCRTGTCTVQRLAHQIYQFTDKDKDNVAPRSKIGPQG[Hyp]-NH2; disulfide 2-7) | 0.082 nM |  | 
2 | CC[C@H](C)[C@H](NC(=O)[C@H](CCC(N)=O)NC(=O)[C@H](Cc1c[nH]cn1)NC(=O)[C@H](C)NC(=O)[C@H](CC(C)C)NC(=O)[C@H](CCCNC(=N)N)NC(=O)[C@H](CCC(N)=O)NC(=O)[C@@H](NC(=O)[C@@H](NC(=O)[C@@H]1CSSC[C@H](NC(=O)[C@H](CCCCN)NC(=O)CC[C@H](NC(=O)CCCCCCCCCCCCCCCCCCC(=O)O)C(=O)O)C(=O)N[C@@H](CC(N)=O)C(=O)N[C@@H]([C@@H](C)O)C(=O)N[C@@H](C)C(=O)N[C@@H]([C@@H](C)O)C(=O)N1)[C@@H](C)O)C(C)C)C(=O)N[C@@H](Cc1ccc(O)cc1)C(=O)N[C@@H](CCC(N)=O)C(=O)N[C@@H](Cc1ccc(O)cc1)C(=O)N[C@H](C(=O)N[C@@H](CC(=O)O)C(=O)N[C@@H](CCCCN)C(=O)N[C@@H](CC(=O)O)C(=O)N[C@@H](CCCCN)C(=O)N[C@@H](CC(=O)O)C(=O)N[C@@H](CC(N)=O)C(=O)N[C@H](C(=O)N[C@@H](C)C(=O)N1CCC[C@H]1C(=O)N1CCC[C@H]1C(=O)N[C@H](C(=O)N[C@@H](CC(N)=O)C(=O)N[C@H](C(=O)NCC(=O)N[C@@H](CO)C(=O)N[C@@H](CC(N)=O)C(=O)NCC(=O)N1C[C@H](O)C[C@H]1C(N)=O)C(C)C)[C@@H](C)O)C(C)C)[C@@H](C)O [compound 48] ({C20 diacid-γGlu}-KCNTATCTVQRLAHQIYQYTDKDKDNVAPPTNVGSNG[Hyp]-NH2; disulfide 2-7) | 0.011 nM |  | 
3 | GCRFGTCTVQRLAHQIYQFTDKDKDNVAPRSKVSPNGY [SEQ ID NO: 384] |  | 0.036 nM | 1.09 nM
4 | GCRFGTCTVQRLAHQIYQFTDKDKDNVAPRTKVSPNGY [SEQ ID NO: 385] |  | 0.036 nM | 7 nM
5 | {C20 diacid-γGlu}-RCNTATCTVQRLAHQIYQFTDKDKDNVAPPTNVGSNG[Hyp]-NH2 (disulfide 2-7 (inferred); ends not checked) [SEQ ID NO: 39] |  | 0.01 nM | > 5000 nM
6 | {C20 diacid-γGlu}-GCRFGTCTVQRLANFLYQFTDKDKDNVAPRTNVGPQGY-NH2 (disulfide 2-7 (inferred); ends not checked) [SEQ ID NO: 386] |  | 0.039 nM | 7.35 nM
7 | GCRFGTCTVQRLAHQIYQFTDKDKDNVAPRSKIGPQGY [SEQ ID NO: 387] |  | 0.04 nM | 0.992 nM
8 | {C20 diacid-γGlu}-GCRFGTCTVQRLAHFLYQFTDKDKDNVAPRTNIGPQGY-NH2 (disulfide 2-7 (inferred); ends not checked) [SEQ ID NO: 388] |  | 0.043 nM | 4.01 nM
9 | {C20 diacid-γGlu}-KCNFATCATQRLANFLVQFTDKDKDNVAPRSKIGPQGY-NH2 (disulfide 2-7 (inferred); ends not checked) [SEQ ID NO: 389] |  | 0.045 nM | 1.04 nM
10 | {C20 diacid-γGlu}-GCRFGTCTVQRLAHFLYQFTDKDKDNVAPRTKIGPQGY-NH2 (disulfide 2-7 (inferred); ends not checked) [SEQ ID NO: 390] |  | 0.048 nM | 0.889 nM
11 | GCRFGTCTVQRLAHQIYQFTDKDKDNVAPRTKIGPQGY [SEQ ID NO: 391] |  | 0.068 nM | 0.665 nM
12 | {C20 diacid-γGlu}-GCRFGTCTVQRLAHFLYQFTDKDKDNVAPRTKVGPQGY-NH2 (disulfide 2-7 (inferred); ends not checked) [SEQ ID NO: 392] |  | 0.113 nM | 5.03 nM
13 | KCNTATCTVQRLAEQIYQFTDKDKK([AEEA-AEEA-γGlu-C20 diacid])NVAPPTNVGSNG[Hyp]-NH2 (disulfide 2-7 (inferred); not fully specified (N-terminus); ends not checked) [SEQ ID NO: 40] |  | 0.01 nM | > 5000 nM
14 | KCNTATCTVQRLAEQIYQFTDKDKDK([AEEA-AEEA-γGlu-C20 diacid])VAPPTNVGSNG[Hyp]-NH2 (disulfide 2-7 (inferred); not fully specified (N-terminus); ends not checked) [SEQ ID NO: 41] |  | 0.01 nM | > 5000 nM
15 | KCNTATCTVQRLAHQIYAFTDKDKDNVAPPTNVGSNG[Hyp]-NH2 (disulfide 2-7 (inferred); ends not checked) [SEQ ID NO: 42] |  | 0.01 nM | > 5000 nM
16 | KCNTATCTVQRLAHQIYQFTDKAKDNVAPPTNVGSNG[Hyp]-NH2 (disulfide 2-7 (inferred); ends not checked) [SEQ ID NO: 43] |  | 0.01 nM | > 5000 nM
17 | KCNTATCTVQRLAEQIYQFTDKDKDNVAPPYNEGSNG[Hyp]-NH2 (disulfide 2-7 (inferred); ends not checked) [SEQ ID NO: 44] |  | 0.01 nM | > 5000 nM
18 | GCRFGTCTVQRLAHQIYQFTDKDKDNVAPRTKVGPQG[Hyp]-NH2 (disulfide 2-7 (inferred); ends not checked) [SEQ ID NO: 45] |  | 0.011 nM | 50.5 nM
19 | GCRFGTCTVQRLAHQIYQFTDKDKDNVAPRTNIGPQG[Hyp]-NH2 (disulfide 2-7 (inferred); ends not checked) [SEQ ID NO: 46] |  | 0.011 nM | 78.5 nM
20 | {C20 diacid-γGlu}-KCNTATCTVQRLAYQIYQFTDKDKDNVAPPTNVGSNG[Hyp]-NH2 (disulfide 2-7 (inferred); ends not checked) [SEQ ID NO: 47] |  | 0.011 nM | 500 nM
21 | {C20 diacid-γGlu}-KCNTATCTVQRLAHQIYQYTDKDKDNVAPPTNVGSNG[Hyp]-NH2 (disulfide 2-7 (inferred); ends not checked) [SEQ ID NO: 48] |  | 0.011 nM | 761 nM
22 | GCRTGTCTVQRLAHQIYQFTDKDKDNVAPRTNVGPQG[Hyp]-NH2 (disulfide 2-7 (inferred); ends not checked) [SEQ ID NO: 49] |  | 0.011 nM | 2980 nM

From patent US12139520B2 (priority 2020, dated 2024)
